Data: the supplement of paper PMC7125110
± gives the standard error. This sample holds only a part of the variants without activity.

B1: glmS ribozyme (parent)
chain: AUAAAAGCGCCAGAACUACAGAAAUGUAGUUGACGAGGAGGAGGUUUAUCGAAUUUUCGGCGGAUGCCUCCAAA

Variants of: B1
Assay: self-cleavage kobs at 640 uM GlcN6P; higher = faster cleavage; RNA array
Details: with glucosamine-6-phosphate
In short: (§1)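 Glucosamine-6-phosphate (40 μM to 10 mM) in HEPES/KCl/Mg(OAc)2 buffer was flowed over sequenced MiSeq chips, and tiles were imaged over ~14 h. Barcoded ribozyme variants there had been transcribed in situ by E. coli RNA polymerase and were tracked through a hybridised Cy3 probe at 37 °C. One- or two-exponential decay fits to per-tile medians, normalised to baseline and to non-cleaving reference variants, gave kobs. kcat and KM came from weighted Michaelis–Menten fits across concentrations.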

Variant	self-cleavage kobs at 640 uM GlcN6P
A36C G38C G43U U54G U56C	< 1e-05 s⁻¹
A48U G62U C70U	< 1e-05 s⁻¹
C10G U30C C68G	9.65e-05 ± 3.5e-05 s⁻¹
A15U U31A C34A	< 1e-05 s⁻¹
C11U A15G G60U	< 1e-05 s⁻¹
U49A C50A C70G	5.26e-05 ± 2.2e-05 s⁻¹
A33U U49A G51C	< 1e-05 s⁻¹
A14C G40U C67U	< 1e-05 s⁻¹
A12C G29A G37A	0.000302 ± 8.2e-05 s⁻¹
A36C A42U G44C A52U	< 1e-05 s⁻¹
U55G G63U	< 1e-05 s⁻¹
U31C G43A	< 1e-05 s⁻¹
G13C A14U A42U A64G	< 1e-05 s⁻¹
U31G G51U	< 1e-05 s⁻¹
G37C U49C	< 1e-05 s⁻¹
G41U U47G G51U	< 1e-05 s⁻¹
C34U U49A U55G C61U C68G	0.000585 ± 0.00016 s⁻¹
G13U G35U G40U A53U	< 1e-05 s⁻¹
A14U A15G G35U	< 1e-05 s⁻¹
C34G U54A A64G	< 1e-05 s⁻¹
G21U U69G	6.25e-05 ± 1.4e-05 s⁻¹

Variant	self-cleavage kobs at 640 uM GlcN6P
G21U U30A	0.00112 ± 0.00029 s⁻¹
U54A G66A C71U	0.00501 ± 0.00099 s⁻¹
G29A G32U U56A	8.76e-05 ± 2.8e-05 s⁻¹
A48U C58A C61G	< 1e-05 s⁻¹
U47G A52U C68G	0.000113 ± 4.9e-05 s⁻¹
G13U G62C C70U	< 1e-05 s⁻¹
A15C G51A G59C	< 1e-05 s⁻¹
G32C G63A U65A	< 1e-05 s⁻¹
G32A A48C U55G G66A	< 1e-05 s⁻¹
G7C U45G A53U A64G	< 1e-05 s⁻¹
G63U U65C	< 1e-05 s⁻¹
C10G C11G G32C G59C C67G	< 1e-05 s⁻¹
G13A C16G G59C C68A	0.000133 ± 3.8e-05 s⁻¹
C34U G35C C50U C67A	< 1e-05 s⁻¹
A15C U54C G66U C70U	7.59e-05 ± 1.8e-05 s⁻¹
U31C G44A U46G G59A C70U	< 1e-05 s⁻¹
A36C A39C A52U	< 1e-05 s⁻¹
A14G A36U C68A	< 1e-05 s⁻¹
A6U C16U G41U	< 1e-05 s⁻¹
G43U C70G C71A	< 1e-05 s⁻¹
G32C A48U A64C	< 1e-05 s⁻¹

Variant	self-cleavage kobs at 640 uM GlcN6P
G43C G44U G60U	< 1e-05 s⁻¹
A64U C67U C71U	< 1e-05 s⁻¹
C8G G32U G44C	< 1e-05 s⁻¹
A12G C50G C71G	0.000415 ± 0.00014 s⁻¹
A36C G37A G43U C61G C67A	< 1e-05 s⁻¹
A28C A33U G59U C61U	< 1e-05 s⁻¹
G7U G38A G44U	< 1e-05 s⁻¹
A14G G35A C71G	< 1e-05 s⁻¹
C11A G13U U31A G32A U47G	< 1e-05 s⁻¹
A39G A42G C50A	< 1e-05 s⁻¹
A12C A14U C16G G35C G62U	< 1e-05 s⁻¹
U31C G60A U69A	< 1e-05 s⁻¹
G13U G43C C67U	< 1e-05 s⁻¹
C50A G51U G59A U69A	0.000511 ± 0.00021 s⁻¹
A6U A36C A39U C71G	< 1e-05 s⁻¹
C58U G62A C68G	6.69e-05 ± 2.4e-05 s⁻¹
U46G C58A A64U	< 1e-05 s⁻¹
C8G C10A G41A	< 1e-05 s⁻¹
C8G G32U G38U G44A	< 1e-05 s⁻¹
A36G C58A G59U C70U	< 1e-05 s⁻¹
A12G A36G G40A U54G	< 1e-05 s⁻¹

Variant	self-cleavage kobs at 640 uM GlcN6P
G7U G35U C58U C70A C71U	< 1e-05 s⁻¹
U55C C58A C70U	4.34e-05 ± 1.9e-05 s⁻¹
G32C U56A U65G U69G	0.000283 ± 0.0001 s⁻¹
A48U C50G C70U	9.42e-05 ± 2.9e-05 s⁻¹
A33C A36U G37U C71U	< 1e-05 s⁻¹
A14U A15U C68U	8.97e-05 ± 2.4e-05 s⁻¹
G7U G66A C67U	< 1e-05 s⁻¹
G37U A48G C70U	< 1e-05 s⁻¹
A12G G37C U57A	< 1e-05 s⁻¹
C34A A53U C70U	< 1e-05 s⁻¹
A14C A33C A53U U55A G60U	< 1e-05 s⁻¹
A39C A52C C71A	< 1e-05 s⁻¹
C34G U69G	0.000107 ± 2e-05 s⁻¹
G7A G40U U45G C58G	< 1e-05 s⁻¹
A12G C16A A52U U57G	< 1e-05 s⁻¹
C10A G38A G40U C50G G51U	< 1e-05 s⁻¹
G7U A14U A52C C68A	0.00249 ± 0.001 s⁻¹
G35C G40A G43U	< 1e-05 s⁻¹
G13U G60U C68A C71A	< 1e-05 s⁻¹
A42G U47G C67U	0.00108 ± 0.00019 s⁻¹

Variants of: B1
Assay: self-cleavage kobs at 2500 uM GlcN6P; higher = faster cleavage; RNA array
Details: with glucosamine-6-phosphate
In short: as §1

Variant	self-cleavage kobs at 2500 uM GlcN6P
A52G U57A C58G C71U	7.76e-05 ± 2.9e-05 s⁻¹
C11U U30G U45A	0.00111 ± 0.00024 s⁻¹
A12U G32C G40U U45C	< 1e-05 s⁻¹
U30G A33G A42G G43U C70A	< 1e-05 s⁻¹
A15U U31A C34A	< 1e-05 s⁻¹
U49A C50A C70G	4.46e-05 ± 2e-05 s⁻¹
G13C A33C G63A A64C	< 1e-05 s⁻¹
C8G G59C A64G	< 1e-05 s⁻¹
C16G U30A C71U	0.000103 ± 3.5e-05 s⁻¹
G9U A39G G44C C67G	< 1e-05 s⁻¹
A12C G29A G37A	0.000142 ± 5.2e-05 s⁻¹
U55G G63U	< 1e-05 s⁻¹
U31C G43A	< 1e-05 s⁻¹
G37C U49C	< 1e-05 s⁻¹
G41U U47G G51U	< 1e-05 s⁻¹
G9C A14G U69G	< 1e-05 s⁻¹
A12C A36G A42U U45A G51U	< 1e-05 s⁻¹
A14U A15G G35U	< 1e-05 s⁻¹
C34G U54A A64G	< 1e-05 s⁻¹
C10G U30C G38C U47A	< 1e-05 s⁻¹
G21U U69G	9.89e-05 ± 2e-05 s⁻¹
G21U U30A	0.000247 ± 0.00012 s⁻¹
A39G A64G U69A	0.00038 ± 0.00012 s⁻¹
G29A G32U U56A	0.000464 ± 0.00011 s⁻¹
C10G C19A A39U U69C	< 1e-05 s⁻¹
A15C G51A G59C	< 1e-05 s⁻¹
A15C U47C U55C	0.000237 ± 7.7e-05 s⁻¹

Variant	self-cleavage kobs at 2500 uM GlcN6P
A15U U54C U65A	0.000123 ± 2.8e-05 s⁻¹
G32C G63A U65A	< 1e-05 s⁻¹
A42G U45C C70U	0.00265 ± 0.00085 s⁻¹
C34U C50A C58G G62C	< 1e-05 s⁻¹
G63U U65C	< 1e-05 s⁻¹
U55A C61A C68A	0.00152 ± 0.00071 s⁻¹
G9U A39U A48U C50A U57C G66A	< 1e-05 s⁻¹
C34U G35C C50U C67A	< 1e-05 s⁻¹
C16A G40C A42U	< 1e-05 s⁻¹
A15U G35U G40A	< 1e-05 s⁻¹
U31C G38U G66U	< 1e-05 s⁻¹
G37U G44U U54A	< 1e-05 s⁻¹
A6U A14U G29A C34G G63A	< 1e-05 s⁻¹
A48U G60C G63C C71U	< 1e-05 s⁻¹
A12G A48G U55C U57G	< 1e-05 s⁻¹
A15C U54C G66U C70U	0.000351 ± 9.2e-05 s⁻¹
U31C G44A U46G G59A C70U	< 1e-05 s⁻¹
A12U C34A G35A U49G	< 1e-05 s⁻¹
U57C U69C	6.42e-05 ± 2.1e-05 s⁻¹
A14G A36U C68A	0.00425 ± 0.0019 s⁻¹
G32A U45C A52G	< 1e-05 s⁻¹
C10G C11G G13U U69C C70G	< 1e-05 s⁻¹
A12U G13A G38U	< 1e-05 s⁻¹
G43U C70G C71A	< 1e-05 s⁻¹
A33U U46G A48G A64C C70U	< 1e-05 s⁻¹
A15C U57A C67G	5.01e-05 ± 2.4e-05 s⁻¹
G7A C8A G41U	< 1e-05 s⁻¹

Variant	self-cleavage kobs at 2500 uM GlcN6P
C11A G21U A39C U46A U57C	< 1e-05 s⁻¹
A12G C50G C71G	0.000636 ± 0.00027 s⁻¹
G35U A64G C71A	< 1e-05 s⁻¹
G32U A42G C58G C70U	0.000198 ± 8.4e-05 s⁻¹
A33G G35A A36C G41A C61G C68G	< 1e-05 s⁻¹
A36C G37A G43U C61G C67A	< 1e-05 s⁻¹
A39G G41U C68G	< 1e-05 s⁻¹
G13C G38U U47A C70G	< 1e-05 s⁻¹
G29U U56A C68U	0.000413 ± 6.5e-05 s⁻¹
G32C U54C	1.41e-05 ± 5.6e-06 s⁻¹
G7A C10G G37U	< 1e-05 s⁻¹
A39G A42G C50A	< 1e-05 s⁻¹
A42U U45A U49G	< 1e-05 s⁻¹
A33U A52C G63C	< 1e-05 s⁻¹
C11G G29U A48U G51U C71G	0.000485 ± 0.00016 s⁻¹
G13U G43C C67U	< 1e-05 s⁻¹
G21U U57C	9.36e-05 ± 1.4e-05 s⁻¹
A14G A52U A53G	0.000141 ± 3.3e-05 s⁻¹
A6U A36C A39U C71G	< 1e-05 s⁻¹
G29U U30A A33G G37U	< 1e-05 s⁻¹
U46G C58A A64U	< 1e-05 s⁻¹
C8G C10A G41A	< 1e-05 s⁻¹
C10A G13U A36U U55C C67U	< 1e-05 s⁻¹
U30A G32C	6.18e-05 ± 2.8e-05 s⁻¹
G37A U65G C67A	4.8e-05 ± 1.1e-05 s⁻¹
U31C A36C G63U C68A	0.000118 ± 4e-05 s⁻¹
A36G C58A G59U C70U	< 1e-05 s⁻¹

Variant	self-cleavage kobs at 2500 uM GlcN6P
A15G A52U C70U	0.000255 ± 6.5e-05 s⁻¹
C8U G37U U54G	< 1e-05 s⁻¹
U55C C58A C70U	5.54e-05 ± 1.5e-05 s⁻¹
G32C U56A U65G U69G	6.06e-05 ± 3e-05 s⁻¹
G32C G38A U47A C58U A64C U69G	0.000153 ± 4.8e-05 s⁻¹
A33C A36U G37U C71U	< 1e-05 s⁻¹
A14U A15U C68U	0.000111 ± 3.2e-05 s⁻¹
G7U G66A C67U	< 1e-05 s⁻¹
G35U A48U U56G	< 1e-05 s⁻¹
A12G G37C U57A	< 1e-05 s⁻¹
A14C A33C A53U U55A G60U	< 1e-05 s⁻¹
A39C A52C C71A	< 1e-05 s⁻¹
C34G U69G	8.27e-05 ± 2.5e-05 s⁻¹
G9U U54C G63C	< 1e-05 s⁻¹
G38U U45C U57A	< 1e-05 s⁻¹
G7A G40U U45G C58G	< 1e-05 s⁻¹
C10U G51C G59U C67U	< 1e-05 s⁻¹
G41U A42U A52G U56A	3.73e-05 ± 1.2e-05 s⁻¹
C10A G38A G40U C50G G51U	< 1e-05 s⁻¹
G35C G40A G43U	< 1e-05 s⁻¹
G13U G60U C68A C71A	< 1e-05 s⁻¹
C8A G13U A53G U65G	< 1e-05 s⁻¹
A42G U47G C67U	0.0013 ± 0.00029 s⁻¹
A52C U57C G66U	< 1e-05 s⁻¹

Variants of: B1
Assay: self-cleavage kobs at 10000 uM GlcN6P; higher = faster cleavage; RNA array
Details: with glucosamine-6-phosphate
In short: as §1

Variant	self-cleavage kobs at 10000 uM GlcN6P
G37C U49C	< 1e-05 s⁻¹
G21U U30A	0.00354 ± 0.00075 s⁻¹
A15U U54C U65A	0.000335 ± 3.8e-05 s⁻¹
A42G U45C C70U	0.00197 ± 0.00052 s⁻¹
G32C U54C	8.23e-05 ± 1.2e-05 s⁻¹
G13U G43C C67U	< 1e-05 s⁻¹
U30A G32C	0.000203 ± 5.8e-05 s⁻¹
